Laboratory results reported in paper PMC3277711 (Cell, 2012).

Experiments:
[1] = target: the molecule itself; assay: SEC
[2] = target: chicken CENP-T-W complex (CENP-T histone fold with CENP-W) (chicken) (UniProt F1NPG5); assay: SEC
[3] = target: the molecule itself; assay: crystal structure

Row | stoichiometry N (CENP-S-X dimer per CENP-T-W dimer) [2] | Binder | stoichiometry N [1] | stoichiometry N [3]
1 | 1 | chicken CENP-S-X complex (full-length CENP-S with CENP-X) (complex) chain 1: MEAAGGEQRELLIQRLRAAVHYTTGCLCQDVAEDKGVLFSKQTVAAISEITFRQCENFARDLEMFARHAKRSTITSEDVKLLARRSNSLLKYITQKSDELASSNMEQKEKKKKKSSAAKGRKTEENETPVTESEDSNMA chain 2: MEEREGGFRKETVERLLRLHFRDGRTRVNGDALLLMAELLKVFVREAAARAARQAQAEDLEKVDIEHVEKVLPQLLLDFVV | 2 CENP-S-X heterodimers in the oligomer | 
2 |  | chicken CENP-SΔC-X complex (complex) chain 1: MEAAGGEQRELLIQRLRAAVHYTTGCLCQDVAEDKGVLFSKQTVAAISEITFRQCENFARDLEMFARHAKRSTITSEDVKLLARRSNSLLKYITQKSDELASSNME chain 2: MEEREGGFRKETVERLLRLHFRDGRTRVNGDALLLMAELLKVFVREAAARAARQAQAEDLEKVDIEHVEKVLPQLLLDFVV |  | 2 CENP-S-X heterodimers in the oligomer
